Results as given in patent US20210388084A1 (JJP BIOLOGICS SP Z O O, published 2021).
Residue numbers refer to the chain shown, from its start.

B1: mouse anti-human CD89-specific antibody 8F3 (antibody, mouse IgG1, V domains shown)
VH: EVQLVESGGGLVKPGGSLKLSCAASGFTFSNYGMSWVRQTPDKRLEWVATMHSGGTYTYYPDNVKGRFTISRDNAKNNLYLQMSSLRSEDTAMYYCARETGLYDGLFDFWGQGTTLTVSS
VL: DVQITQSPSYLAASPGETITINCRASKTISKYLAWYQEKPGKTNMLLIYSGSTLQSGVPSRFSGSGSGTDFTLTISSLEPEDLAMYYCQQHDEYPWTFGGGTKLEIK
B2: mouse anti-human CD89-specific antibody 10E7 (antibody, mouse IgG1, V domains shown)
VH: EVQLVESGGGLVQPGGSLKLSCAASGLTFSSYGMSWVRQTPDKRLELVATINGNGDITYYPDSVKGRFTISRDNAKNTLYLQMSSLKSEDTAMYYCARDYDYDYAMDYWGQGTSVTVSS
VL: DIQMTQSTSSLSASLGDSVTISCRASQDIINYLNWYQQKPDGTVKLLIYYTSRLHSGVPSRFSGSGSGTEYSLTVSNLEKEDIATYFCQQGKTLPYTFGGGTKLEIK
B3: mouse anti-human CD89-specific antibody 20B4 (antibody, mouse IgG1, V domains shown)
VH: QVQLKESGPGLVAPSQSLSITCTVSGFSLTSYGVHWVRQPPGKGLEWLGIIWAGGSTSYNSALMSRLSISKDNSKSQVFLKMNSLQTDDTAMYYCARDHYDLFAYWGQGTLVTVSA
VL: DILMTQSPSSMSVSLGDTVSITCHASQDISRNIGWLQQKPGKSFKGLIYHGTNLEDGVPSRFSGSGSGADYSLTISSLESEDFADYYCVQYAQFPRTFGGGTKLEIK

Legend:
[1] = target: T1, membrane-bound full-length human CD89 (human, UniProt P24071 22-287); assay: FACS, HEK293F-huCD89, unlabeled Ab 10 ug/mL first; competitor A59-PE
T1 construct: on stably or transiently transfected HEK293F cells; also called FcalphaRI; huCD89
Protocol: (§1) Then, 10 μL/tube (ie, 0.1×10⁶ cells) of these cells were incubated with or without 100 μL purified mouse anti-human CD89 antibody at 10 μg/mL (in PBS/BSA/NaN₃) for 30 minutes at 4° C. […] After extensive washing in PBS/BSA/NaN₃, cells were fixed in 2% formaldehyde in PBS/BSA/NaN₃ for 30 minutes at 4° C.

[2] = target: T1, membrane-bound full-length human CD89; assay: FACS, HEK293F-huCD89, unlabeled Ab 10 ug/mL first; competitor A3-PE
Protocol: as §1

[3] = target: T2, chimeric human/cynomolgus monkey CD89-III (human/cynomolgus monkey chimera, UniProt P24071 22-287); assay: FACS, transiently transfected HEK293F; - = no binding
T2 construct: also called ΔGly72-Gly96 human EC1-CD89; III (72-96)
T2 chain: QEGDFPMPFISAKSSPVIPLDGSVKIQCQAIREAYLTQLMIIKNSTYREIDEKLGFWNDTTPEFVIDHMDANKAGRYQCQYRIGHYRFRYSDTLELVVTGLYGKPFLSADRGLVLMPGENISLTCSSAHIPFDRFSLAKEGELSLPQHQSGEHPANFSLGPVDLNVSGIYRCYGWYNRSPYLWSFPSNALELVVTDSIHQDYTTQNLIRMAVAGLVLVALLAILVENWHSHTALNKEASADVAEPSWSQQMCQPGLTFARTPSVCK

[4] = target: T3, chimeric human/cynomolgus monkey CD89-hotspots (human/cynomolgus monkey chimera, UniProt P24071 22-287); assay: as above
T3 construct: also called ΔThr58, Gln59; ΔArg73, Arg74, Lys76
T3 chain: T2 chain with T37I, Q38W, D51G, D59E, T61D, H85L, Y86S

[5] = target: T4, membrane full-length bovine Fcγ2R (bovine); assay: FACS, transiently transfected HEK293F
T4 chain: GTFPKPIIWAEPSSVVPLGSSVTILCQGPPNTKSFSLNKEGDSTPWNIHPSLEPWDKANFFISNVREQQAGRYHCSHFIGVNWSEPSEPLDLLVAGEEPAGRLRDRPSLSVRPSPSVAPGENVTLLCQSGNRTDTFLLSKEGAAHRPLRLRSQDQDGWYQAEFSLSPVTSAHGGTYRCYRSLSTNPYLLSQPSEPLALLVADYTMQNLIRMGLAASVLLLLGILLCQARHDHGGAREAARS
Protocol: (§2) After 48 hours and/or 72 hours, the binding of CD89/IgA blocking mouse anti-human CD89 antibodies to aforementioned chimeric human/bovine receptors on transfected cells was analyzed by FACS analysis. To this end, transient transfected HEK293F cells were put at 10×10⁶ cells/mL in ice-chilled phosphate-buffered saline containing 0.1% BSA (Sigma)/0.05% NaN₃ (PBS/BSA/NaN₃) supplemented with 50 μg/mL human IgGs (blocking Fcγ receptors; Sigma) for 10 minutes at 4° C. Then, 10 μL/tube (ie, 0.1×10⁶ cells) of these cells were incubated with or without 100 μL purified mouse anti-human CD89 antibody at 10 μg/mL (in PBS/BSA/NaN₃) for 30 minutes at 4° C. […] After extensive washing in PBS/BSA/NaN₃, cells were subsequently incubated with 1:200 diluted PE-conjugated goat anti-mouse IgG Fey-specific antibodies (Jackson ImmunoResearch) for 30 minutes at 4° C. After extensive washing in PBS/BSA/NaN₃, cells were fixed in 2% formaldehyde in PBS/BSA/NaN₃ for 30 minutes at 4° C.

[6] = target: T5, chimeric human EC1-CD89/bovine EC2-Fcγ2R (bovine TM & bovine IC) (human/bovine chimera); assay: FACS, transiently transfected HEK293F, 10 ug/mL
T5 construct: also called human EC1-CD89 (version with bovine transmembrane-intracellular region)
Protocol: as §2

[7] = target: T6, chimeric human EC1-CD89/bovine EC2-Fcγ2R (human TM & human IC) (human/bovine chimera); assay: FACS, transiently transfected HEK293F, 10 ug/mL
T6 construct: also called human EC1-CD89 (version with human transmembrane-intracellular region)
Protocol: as §2

[8] = target: T2, chimeric human/cynomolgus monkey …; assay: FACS, transiently transfected HEK293F, 10 ug/mL; ++ strong, + intermediate, -/+ weak
[9] = target: T3, chimeric human/cynomolgus monkey …; assay: as above
[10] = target: T1, membrane-bound full-length human CD89; assay: FACS, HEK293F-huCD89, 4C +NaN3, IgA then Ab 10 ug/mL; pre-bound heat-aggr serum IgA
Protocol: After extensive washing in PBS/BSA/NaN₃, 1:200 diluted PE-conjugated streptavidin (Jackson ImmunoResearch) was added, and incubated for 30 minutes at 4° C. After extensive washing in PBS/BSA/NaN₃, cells were fixed in 2% formaldehyde in PBS/BSA/NaN₃ for 30 minutes at 4° C.

[11] = target: T1, membrane-bound full-length human CD89; assay: FACS, HEK293F-huCD89, 4C +NaN3, IgA then Ab 10 ug/mL; pre-bound non-aggr serum IgA
Protocol: After this (ie, without washing), 50 μL purified mouse anti-human CD89 antibody at 20 μg/mL (in PBS/BSA/NaN₃) was added to these cells, and incubated for another 30 minutes at 4° C. […] After extensive washing in PBS/BSA/NaN₃, 1:200 diluted PE-conjugated streptavidin (Jackson ImmunoResearch) was added, and incubated for 30 minutes at 4° C. After extensive washing in PBS/BSA/NaN₃, cells were fixed in 2% formaldehyde in PBS/BSA/NaN₃ for 30 minutes at 4° C.

[12] = target: T7, chimeric human/cynomolgus monkey CD89-II (human/cynomolgus monkey chimera, UniProt P24071 22-287); assay: FACS, transiently transfected HEK293F; - = no binding
T7 construct: also called ΔIle47-Ile71 human EC1-CD89; II (47-71)
T7 chain: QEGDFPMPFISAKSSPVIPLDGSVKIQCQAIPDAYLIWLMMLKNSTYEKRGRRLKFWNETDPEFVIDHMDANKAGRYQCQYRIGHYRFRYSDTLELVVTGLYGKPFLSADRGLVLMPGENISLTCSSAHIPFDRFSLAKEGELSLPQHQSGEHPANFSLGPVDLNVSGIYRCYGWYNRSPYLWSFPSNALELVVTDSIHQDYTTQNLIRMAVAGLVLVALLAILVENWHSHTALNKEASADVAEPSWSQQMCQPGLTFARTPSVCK

% blocking of A59-PE binding [1]	% blocking of A3-PE binding [2]	binding result [3]	binding result [4]	binding result [5]	binding result [6]	binding result [7]	binding result [8]	binding result [9]	percent IgA binding [10]	percent IgA binding [11]	binding result [12]	Binder
< 25%	< 25%	no binding (tested: 10 µg/mL)	no binding (tested: 10 µg/mL)									B1
< 25%	< 25%		no binding (tested: 10 µg/mL)	no binding (tested: 10 µg/mL)	binds	binds						B2
							binds	binds	26 to 50%	0 to 25%	no binding (tested: 10 µg/mL)	B3
